Legend:
[1] = molecular target: T1, human APRIL (Acros Biosystems) (human, UniProt O75888 115-250, limits assumed); assay: cell-based or functional assay
T1 sequence: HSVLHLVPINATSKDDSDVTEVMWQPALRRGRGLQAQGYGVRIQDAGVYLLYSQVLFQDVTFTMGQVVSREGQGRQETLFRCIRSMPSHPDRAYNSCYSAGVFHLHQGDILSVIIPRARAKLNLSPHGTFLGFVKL

[2] = molecular target: human BAFF-60mer (Adipogen) (human, UniProt Q9Y275 134-285); assay: cell-based or functional assay
[3] = molecular target: human BAFF (Acros Biosystems) (human, UniProt Q9Y275 134-285); assay: cell-based or functional assay
[4] = molecular target: T2, human APRIL (Examples 21-23) (human, UniProt O75888 105-250); assay: SPR (Carterra LSA, HC30M chip)
T2 construct: also called huAPRIL
T2 sequence: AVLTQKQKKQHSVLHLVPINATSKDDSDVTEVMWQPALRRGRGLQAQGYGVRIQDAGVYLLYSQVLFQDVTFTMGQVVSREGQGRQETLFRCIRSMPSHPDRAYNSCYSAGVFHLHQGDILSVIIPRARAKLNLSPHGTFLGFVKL
Procedure: (§1) The KD of a BAv9-1 CRD-IgG4 Fc fusion protein, and other BAFF or APRIL binding molecules, the BAFF/APRIL binding molecule Atacicept and a different recombinant TACI-Fc fusion protein RC18 (also known as Telitacicept), to human or murine BAFF or human or murine APRIL were determined by surface plasmon resonance (Carterra LSA, HC30M sensor chip).

[5] = molecular target: T3, murine BAFF (Examples 22-23) (mouse, UniProt Q9WU72 127-309); assay: SPR (Carterra LSA, HC30M chip)
Procedure: as §1

[6] = molecular target: T4, human BAFF (Examples 21-23) (human, UniProt Q9Y275 134-285); assay: SPR (Carterra LSA, HC30M chip)
T4 construct: also called huBAFF
Procedure: as §1

[7] = molecular target: T2, human APRIL (Examples 21-23); assay: assay not given (Example 21)
[8] = molecular target: T4, human BAFF (Examples 21-23); assay: assay not given (Example 21)
[9] = molecular target: T2, human APRIL (Examples 21-23); assay: ratio of KD values of Table 11, assay not stated (Example 21); reference Atacicept
[10] = molecular target: T4, human BAFF (Examples 21-23); assay: as above
[11] = molecular target: T2, human APRIL (Examples 21-23); assay: assay not given (Example 21); remark: listed apart in the source
[12] = molecular target: T4, human BAFF (Examples 21-23); assay: assay not given (Example 21); remark: listed apart in the source
[13] = molecular target: T5, murine APRIL (Examples 22-23) (mouse, UniProt Q9D777 96-241); assay: SPR (Carterra LSA, HC30M chip); murine ligand (Table 13)
T5 sequence (looked up): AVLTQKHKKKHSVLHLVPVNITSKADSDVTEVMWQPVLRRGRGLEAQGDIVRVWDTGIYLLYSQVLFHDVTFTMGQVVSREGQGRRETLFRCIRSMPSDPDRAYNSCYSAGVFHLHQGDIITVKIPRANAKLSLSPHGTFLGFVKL
Procedure: as §1

[14] = molecular target: T2, human APRIL (Examples 21-23); assay: colorimetric ELISA, inhibition curves
Description: (§2) A colorimetric ELISA was used to assess the binding of BAFF/APRIL binding molecules to human and murine BAFF and APRIL. Inhibition curves based on binding to soluble human and murine BAFF and APRIL were used to determine the IC₅₀ values for binding of the exemplary BCMA CRD variant-IgG4 fusion protein BAv9-1 CRD-IgG4 Fc, Atacicept and a different recombinant TACI-Fc fusion protein RC18 (also known as Telitacicept).
(§3) FIG. 34A and FIG. 34B show the inhibition curves of the three different BAFF/APRIL binding molecules to murine BAFF (FIG. 34A) and murine APRIL (FIG. 34B). Compared to the IC₅₀ values determined for Atacicept and RC18 (Telitacicept), the IC₅₀ of the exemplary BCMA CRD variant-IgG4 fusion protein BAv9-1 CRD-IgG4 Fc was orders of magnitude lower for both murine BAFF and murine APRIL. The IC₅₀ values for BAv9-1 CRD-IgG4 Fc for murine BAFF and murine APRIL were 1.5 nM and 2.7 nM respectively.

[15] = molecular target: T5, murine APRIL (Examples 22-23); assay: colorimetric ELISA, inhibition curves
Description: as §2, §3

[16] = molecular target: T3, murine BAFF (Examples 22-23); assay: colorimetric ELISA, inhibition curves
Description: as §2, §3

T3 sequence (Q9WU72 127-309 limits assumed): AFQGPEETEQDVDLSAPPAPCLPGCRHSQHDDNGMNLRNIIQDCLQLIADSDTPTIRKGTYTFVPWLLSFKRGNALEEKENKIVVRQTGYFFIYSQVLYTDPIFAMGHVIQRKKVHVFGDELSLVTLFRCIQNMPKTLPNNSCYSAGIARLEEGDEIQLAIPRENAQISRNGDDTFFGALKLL

B1: BAv9-1 CRD-IgG4 Fc (Fc fusion)
chain: AGQCSQNEYFDHLIRACIPCQLRCSSNTPPLTCQRYCNAGVTNSVGGGGSAESKYGPPCPPCPAPEAAGGPSVFLFPPKPKDTLMISRTPEVTCVVVDVSQEDPEVQFNWYVDGVEVHNAKTKPREEQFNSTYRVVSVLTVLHQDWLNGKEYKCKVSNKGLPSSIEKTISKAKGQPREPQVYTLPPSQEEMTKNQVSLTCLVKGFYPSDIAVEWESNGQPENNYKTTPPVLDSDGSFFLYSRLTVDKSRWQEGNVFSCSVMHEALHNHYTQKSLSLSPGK
notes: mature expressed protein; also called BAv9-1 CRD-Ig Fc; exemplary BCMA CRD variant-IgG4 fusion protein
Question: Which “IC50 for proliferation of stimulated B cells, Donor 1, APRIL + anti-IgM” value [1] does the source give for B1 here?
Answer: Its value is 662 pM.

Question: What about the “IC50 for proliferation of stimulated B cells, Donor 2, APRIL + anti-IgM” value [1] of the same binder?
Answer: The value was 226 pM.

Question: And the “IC50 for proliferation of stimulated B cells, Donor 3, APRIL + anti-IgM” value [1]?
Answer: The value was 366 pM.

Question: What about the “IC50 for proliferation of stimulated B cells, Donor 1, BAFF-60mer + anti-IgM” value [2] of the same binder?
Answer: The value was 835 pM.

Question: And the “IC50 for proliferation of stimulated B cells, Donor 2, BAFF-60mer + anti-IgM” value [2]?
Answer: The value was 577 pM.

Question: And the “IC50 for proliferation of stimulated B cells, Donor 3, BAFF-60mer + anti-IgM” value [2]?
Answer: The value was 610 pM.

Question: What about the “IC50 for proliferation of stimulated B cells, Donor 1, BAFF + anti-IgM” value [3] of the same binder?
Answer: The value was 311 pM.

Question: And the “IC50 for proliferation of stimulated B cells, Donor 2, BAFF + anti-IgM” value [3]?
Answer: The value was 0.215 pM.

Question: And the “IC50 for proliferation of stimulated B cells, Donor 3, BAFF + anti-IgM” value [3]?
Answer: The value was 20.1 pM.

Question: What about the Kd [4] of the same binder?
Answer: Its Kd is 25 pM.

Question: What about the Kd [5] of the same binder?
Answer: The Kd was 31 pM.

Question: And the Kd [6]?
Answer: Its Kd is 117 pM.

Question: What about the Kd [7] of the same binder?
Answer: The Kd was 0.15 pM.

Question: And the Kd [8]?
Answer: The Kd was 0.24 pM.

Question: What about the “fold higher binding affinity compared to Atacicept” value [9] of the same binder?
Answer: The value was 600 to 800 fold.

Question: What about the “fold higher binding affinity compared to Atacicept” value [10] of the same binder?
Answer: The value was 600 to 800 fold.

Question: What about the “fold higher binding affinity vs Atacicept” value [11] of the same binder?
Answer: The value was 600 to 800 fold.

Question: And the “fold higher binding affinity vs Atacicept” value [12]?
Answer: The value was 600 to 800 fold.

Question: And the Kd [13]?
Answer: Its Kd is 0.15 pM.

Question: What about the IC50 [14] of the same binder?
Answer: Its IC50 is 2 pM.

Question: What about the IC50 [15] of the same binder?
Answer: Its IC50 is 2700 pM.

Question: What about the IC50 [16] of the same binder?
Answer: The IC50 was 1500 pM.
